Measured values: PMC11006472

Biological target: human ER membrane protein complex (EMC) with EMC2-3xFlag and EMC5-Twin-Strep (human (endogenous in Expi293F) | human) (UniProt Q8N766)
Experiment: cryo-EM structure; VDAC1-bound class of the purified human EMC sample in digitonin (complex co-purified from cells), single-particle cryo-EM, 3.32 Å

Chain of UniProt Q8N766 (Q8N766 whole entry, looked up, one chain of several): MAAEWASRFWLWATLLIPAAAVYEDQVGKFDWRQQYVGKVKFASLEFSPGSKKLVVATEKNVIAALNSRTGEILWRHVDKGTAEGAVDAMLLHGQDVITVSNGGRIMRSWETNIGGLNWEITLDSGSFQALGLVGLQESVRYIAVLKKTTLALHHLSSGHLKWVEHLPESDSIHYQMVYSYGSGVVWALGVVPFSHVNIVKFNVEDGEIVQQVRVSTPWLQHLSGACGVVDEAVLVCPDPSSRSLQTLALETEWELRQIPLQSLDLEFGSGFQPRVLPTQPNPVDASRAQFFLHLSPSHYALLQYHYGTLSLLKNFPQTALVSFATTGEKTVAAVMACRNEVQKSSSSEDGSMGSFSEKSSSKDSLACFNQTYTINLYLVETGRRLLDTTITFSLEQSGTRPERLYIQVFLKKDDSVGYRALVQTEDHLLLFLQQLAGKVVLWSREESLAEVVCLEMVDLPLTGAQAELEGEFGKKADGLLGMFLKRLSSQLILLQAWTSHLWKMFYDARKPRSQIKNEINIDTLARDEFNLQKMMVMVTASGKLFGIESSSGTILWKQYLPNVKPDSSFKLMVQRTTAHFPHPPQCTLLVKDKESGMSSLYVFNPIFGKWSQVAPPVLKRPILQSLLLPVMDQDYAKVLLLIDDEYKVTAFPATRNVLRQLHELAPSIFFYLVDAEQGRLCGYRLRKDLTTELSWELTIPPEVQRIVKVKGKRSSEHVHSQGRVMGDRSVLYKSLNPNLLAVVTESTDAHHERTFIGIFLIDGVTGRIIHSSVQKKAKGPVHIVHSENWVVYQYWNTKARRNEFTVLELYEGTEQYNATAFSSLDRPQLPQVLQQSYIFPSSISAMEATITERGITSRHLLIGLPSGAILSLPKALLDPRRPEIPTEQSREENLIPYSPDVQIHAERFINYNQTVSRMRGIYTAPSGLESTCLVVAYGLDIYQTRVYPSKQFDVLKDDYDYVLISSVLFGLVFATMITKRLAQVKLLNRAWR

stoichiometry N: 1
Substance: voltage-dependent anion channel 1 (VDAC1), endogenous (from UniProt P21796 1-283) (natural protein)
